# Target: T1, Flag-tagged CDK9 S90A (human, UniProt P50750 1-372, S90A)
# T1 construct: also called Flag-CDK9 S90A
# Assay: co-IP; Flag-CDK9 (WT or S90A) precipitated with anti-Flag antibodies from lysates of 293T cells co-transfected with cyclin T1, 48 hrs post-transfection; whole cell lysis buffer (50 mM Tris-HCl pH 7.5, 0.5 M NaCl, 1% NP-40, 0.1% SDS); IP 2 hrs at 4°C in TNN buffer (50 mM Tris-HCl pH 7.5, 150 mM NaCl, 1% NP-40); immunoblot for Hexim1, CDK9 and cyclin T1
# Details: partners not purified
# T1 sequence (P50750 whole entry S90A): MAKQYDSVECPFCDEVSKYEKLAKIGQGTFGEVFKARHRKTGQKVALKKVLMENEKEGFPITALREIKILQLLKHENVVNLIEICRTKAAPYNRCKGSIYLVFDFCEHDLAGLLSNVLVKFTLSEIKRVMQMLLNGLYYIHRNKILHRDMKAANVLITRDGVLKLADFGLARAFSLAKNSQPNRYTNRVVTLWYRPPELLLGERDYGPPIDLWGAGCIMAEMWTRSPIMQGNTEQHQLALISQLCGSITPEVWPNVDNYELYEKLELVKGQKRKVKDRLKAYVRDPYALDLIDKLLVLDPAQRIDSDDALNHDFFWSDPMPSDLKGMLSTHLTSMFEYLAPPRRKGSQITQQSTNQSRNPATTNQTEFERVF
binder,measurement,value
"HEXIM1 (natural protein, human (endogenous in 293T), UniProt O94992 1-359, looked up, source: endogenous, 293T lysate) MAEPFLSEYQHQPQTSNCTGAAAVQEELNPERPPGAEERVPEEDSRWQSRAFPQLGGRPGPEGEGSLESQPPPLQTQACPESSCLREGEKGQNGDDSSAGGDFPPPAEVEPTPEAELLAQPCHDSEASKLGAPAAGGEEEWGQQQRQLGKKKHRRRPSKKKRHWKPYYKLTWEEKKKFDEKQSLRASRIRAEMFAKGQPVAPYNTTQFLMDDHDQEEPDLKTGLYSKRAAAKSDDTSDDDFMEEGGEEDGGSDGMGGDGSEFLQRDFSETYERYHTESLQNMSKQELIKEYLELEKCLSRMEDENNRLRLESKRLGGDDARVRELELELDRLRAENLQLLTENELHRQQERAPLSKFGD","HEXIM1 co-precipitated, relative to WT CDK9",~50 % less

# Source: paper PMC3515335, “CDK2 Regulates HIV-1 Transcription by Phosphorylation of CDK9 on Serine 90” (Retrovirology, 2012)
